Laboratory results taken from patent US8673313B2, “Cell penetrating peptides and its use fused to biomolecules with therapeutic action” (priority 2007, dated 2014).

Key:
J774 cells = test: Fluorescence microscopy: internalization of the cargo protein E7 to the cell; type: cell-based; settings: 1.66 μM protein, J774, 37° C., 30 min, 1 hour and 2 hours, FIG. 4
Procedure: Cells J774 grown on sterile glass cover slips of 22 mm overnight at 37° C. and 5% of CO2 with RPMI 1640, 10% inactivated calf fetal serum and 2 mM de glutamine. Then, different glass cover slips incubated with 1.66 μM fusion protein LALF-E7, 1.66 μM of protein E7 and PBS (as negative control) a 37° C. per 30 min, 1 hour and 2 hours. CasKi cells (human cells expressing HPV 16) grown as positive control in the same experimental conditions.
After incubation the cells were washed briefly with PBS and fix cells by 4% paraformaldehide per 20 min at room temperature. Wash in three changes of PBS. The permeabilization of the cells was with 0.5% Tritón X-100 for 15 min a room temperature. Wash in three changes of PBS. Then, the cells were incubating for 1 hour in 1% blocking SFB in PBS at room temperature. Wash in three changes of PBS. Cells were incubated with goat IgG anti E7/HPV 16 polyclonal antibody (Santa Cruz) diluted in PBS 1:50. Wash extensively with PBS. Incubate with anti-goat-fluorescein IgG polyclonal antibody (Santa Cruz) diluted in PBS 1:50 for 45 minutes in a dark chamber. Wash extensively with PBS. Mount cover slip with aqueous mounting medium. Examine using a fluorescence microscope with appropriate filters.

[1] = system: TC-1 tumor cell line expressing the HPV16 E7 protein; test: Treatment of established TC-1 tumors in mice (Example 8); type: in vivo, Mice C57BL/6; settings: two immunizations every 14 days from day 10, volume at the 30 days, p<0.01 vs E7, LALF and PBS, FIG. 7
From the text: In order to observe the regression of established tumors from the treatment with the recombinant protein fusion LALF-E7, the tumor cell line TC-1, was used. The TC-1 tumor cell line expressing the HPV16 E7 protein was derived from primary lung cells of C57Bl/6 mice by immortalization and transformation with HPV16 E6 and E7 genes and an activated human C-Ha-ras gene as described in Lin et al. (1996)) Treatment of established tumors with a novel vaccine that enhances major histocompatibility class II presentation of tumor antigen. Cancer Res. 56:21-26. For tumor inoculation, TC-1 cells, supplied by Dr. T.-C. Wu (The Johns Hopkins Medical Institutions, Baltimore, Md.), were grown to 60-70% confluence in RPMI1640 medium supplemented with 10% fetal calf serum (Hyclone, Logan, Utah), nonessential amino acids, glutamine, pyruvate, gentamycin, beta-mercaptoethanol and 0.4 mg/mL Geneticin at 37° C. Cells were harvested by trypsinization and resuspended in Hank's buffer solution at […].
Mice C57BL/6 was inoculated with 2×10^5 cells by subcutaneous injection in right leg in volumes of 0.2 mL. […] The tumor kinetic in the different groups was followed by the tumor volume which was determined using electronic calipers and taking the measures in two orthogonal dimensions. Tumor volumes (mm^3) were calculated from these measurements according to (length×width^2)/2. […]

[2] = system: TC-1 tumor cell line expressing the HPV16 E7 protein; test: Treatment of established TC-1 tumors in mice, fusion versus mix (Example 9); type: in vivo, Mice C57BL/6; settings: two immunizations every 14 days from day 10, volume at the 30 days, p<0.01 vs LALF+E7, LALF, E7 and PBS, FIG. 8
Procedure: To study whether the antitumor effect of LALF-E7 was associated with the covalent bond of both molecules, we carried out experiments in which mice were treated for LALF and E7, which were mixed at the time prior to their use at equal molarity that would allow a comparison with mice that received the fusion protein LALF-E7.
In this realization, Mice C57BL/6 was inoculated with 2×10^5 cells by subcutaneous injection in right leg in volumes of 0.2 mL. To the 10 days, when all the animals had developed palpable tumors, the animals were assigned arbitrarily to five groups of treatments. Each group included 10 animals.
Two immunizations, every 14 days were made. The group 1 was immunized with the recombinant protein LALF-E7; group 2 with the mix LALF+E7: recombinant protein E7; group 3 with synthetic peptide LALF; group 4 with recombinant protein E7 and group 5 with PBS. The tumor kinetic in the different groups was followed as previously described in the example 8. The volume average of each group +/− the standard deviation at the 30 days is represented in the FIG. 8.

B1: LALF-E7: recombinant fusion of CPP LALF to E7 protein of HPV 16, cysteine per glycine in Rb site (SEQ ID N0. 9 y 10) (protein)
chain: MAEFHYRIKPTFRRLKWKYKGKFWKASHGDTPTLHEYMLDLQPETTDLYGYEQLNDSSEEEDEIDGPAGQAEPDRAHYNIVTFCCKCDSTLRLCVQSTHVDIRTLEDLLMGTLGIVCPICSQKPGSRAHHHHHH
modifications: Artificial Sequence Description Protein fusion CPP LALF-E7
J774 cells
  internalization of E7 (fluorescent cells, anti-E7 antibody): fluorescent cells
[1]
  effect on growth of established tumors (tumor volume): full inhibition of growth of established tumors
[2]
  effect on volume of established tumors: effects in reducing the volume of tumors
